One block for each molecule: values may come before it. Non-standard residues stand in square brackets, D forms with d. Residues, ends and D or L forms follow the SMILES beside them. *: point of attachment. Dnp = O=[N+]([O-])c1ccc(*)c([N+](=O)[O-])c1; 2Abz = Nc1ccccc1C(=O)O
Legend:
thermolysin = thermolysin (UniProt P00800)
[1] = molecular target: His6-tagged protealysin (Serratia proteamaculans)
[2] = format: physicochemical; conditions: kinetic, from DMSO stock (6 µl + 500 µl), 50 mM Tris-HCl pH 7.4, room temperature, 24 h, spectrophotometric at 365 nm
Procedure: The substrate sorption on labware complicated the measurement of the Abz-RSVIK(Dnp) solubility since the standard approach based on serial dilutions and identification of the linear range of the experimental concentration-dilution factor relationship could not be used. The substrate solubility was evaluated by periodic spectrophotometric quantitation of its dilutions immediately prepared from the stock in DMSO for one day. Up to 130 µM, the substrate solutions remained stable for 24 h (Supplementary Fig. S3); however, starting from 150 µM their optical density decreased with time. Thus, the substrate has reasonable water solubility and can be used in concentrations up to 130 µM.
The stock solutions (6 µl) in DMSO were supplemented with 500 µl of 50 mM Tris-HCl (pH 7.4). The solutions were incubated at room temperature and the concentration changes were controlled spectrophotometrically for 24 h (Supplementary Fig. S3).
Figure S3. Solubility of Abz-RSVIK(Dnp). Different substrate concentrations were prepared in microcentrifuge tubes (SSI). The stock solution was diluted with DMSO 1.3-20 times. The resulting solutions (6 µl) were supplemented with 500 µl of 50 mM Tris-HCl (pH 7.4). […] A. Measured substrate concentrations for all dilutions and time periods. B. Relationship between substrate concentration and stock quantity 5 h after dilution. […]

protealysin (PLN) = assay: 2.5 nM PLN in 10 mM NH4HCO3; conditions: Serratia proteamaculans, 37 °C, up to 40 min
thermolysin (TLN) = assay: 7.5 nM TLN in 10 mM NH4HCO3; conditions: 37 °C, up to 40 min
[3] = substrate: CC[C@H](C)[C@H](NC(=O)[C@@H](NC(=O)[C@H](CO)NC(=O)[C@H](CCCNC(=N)N)NC(=O)c1ccccc1N)C(C)C)C(=O)N[C@@H](CCCCNc1ccc([N+](=O)[O-])cc1[N+](=O)[O-])C(=O)O; assay: Protease activity assay using Abz-RSVIK(Dnp), hydrolysis kinetic parameters, thermolysin; format: biochemical; conditions: other: thermolysin 2.5 nM, 37 °C, 50 mM Tris-HCl pH 7.4, substrate 2–130 mM as printed, fluorescence ex 320/em 420 nm, Michaelis-Menten fit, two independent experiments with triplicates
Procedure: Desired substrate concentrations were obtained by dilution of the stock in DMSO in 50 mM Tris-HCl (pH 7.4).
For the activity assay, 100 µl of the substrate solution at 2–130 mM in 50 mM Tris-HCl (pH 7.4) was added into a well of a black 96-well plate. After incubation at 37 °C for 10 min, 25 µl of the substrate were taken away and replaced with 25 µl of the enzyme solution in the same buffer preheated at 37 °C, and time-related fluorescence changes were monitored on an Infinite M200 Pro (Tecan, Switzerland). Measurements were taken at 37 °C every 10 s for 2–5 min at the excitation and emission wavelengths of 320 and 420 nm, respectively. Fluorescence varied linearly for 3 min. The initial hydrolysis rates were determined from the data obtained within the first 95 s of the reaction. The concentrations of PLN and TLN in the reaction mix were 2.5 nM. In parallel with the hydrolysis rate measurements, the control was conducted with the buffer added to a well instead of an enzyme solution. The main goal of this control was to determine the substrate concentration in the reaction mix. After the incubation, the substrate solution was transferred into a spectrophotometer cell to measure its optical density at 365 nm. The concentration calculated from the obtained OD was taken as the initial substrate concentration in the hydrolysis reaction.
A calibration curve was plotted to convert the obtained relative fluorescence data into the hydrolyzed substrate concentration. […] The course of the reaction was followed by fluorescence changes as described above. The hydrolysis was considered as complete when the fluorescence signal remained steady even after an extra portion of the enzyme was added (Supplementary Fig. S4). After the incubation, serial dilutions of the reaction mix were made, introduced into wells of a 96-well plate and fluorescence was measured as described above. 2,4-Dinitrophenyl was quantified spectrophotometrically in each well as described above. The resulting values were used to plot a calibration curve in coordinates of relative fluorescence units, μM. […]

Molecule: 2-aminobenzoyl-L-arginyl-L-seryl-L-valyl-L-isoleucyl-L-(ε-2,4-dinitrophenyl)lysine (peptide)
KM of hydrolysis of Abz-RSVIK(Dnp) at 37 °C (initial rates fitted to the Michaelis-Menten equation; 2.5 nM enzyme, 50 mM Tris-HCl pH 7.4) (thermolysin): 33 μM | KM of hydrolysis of Abz-RSVIK(Dnp) at 37 °C (initial rates fitted to the Michaelis-Menten equation; 2.5 nM enzyme, 50 mM Tris-HCl pH 7.4) [1]: 35 μM

Molecule: CC[C@H](C)[C@H](NC(=O)[C@@H](NC(=O)[C@H](CO)NC(=O)[C@H](CCCNC(=N)N)NC(=O)c1ccccc1N)C(C)C)C(=O)N[C@@H](CCCCNc1ccc([N+](=O)[O-])cc1[N+](=O)[O-])C(=O)O [Abz-RSVIK(Dnp), 2-aminobenzoyl-L-arginyl-L-seryl-L-valyl-L-isoleucyl-L-(ε-2,4-dinitrophenyl)lysine] (H-[2Abz]RSVIK(Dnp)-OH)
Solubility: concentration from which optical density decreased with time [2]: ≥ 150 µM

cleaved bond (protealysin (PLN)): Ser-Val, 20 min | cleaved bond (thermolysin (TLN)): Ser-Val, 20 min
Molecule: Abz-Arg-Ser-Val-Ile-Lys(Dnp)
not cleaved (protealysin (PLN)): products remain undetectable after the time period (40 min) | not cleaved (thermolysin (TLN)): products remain undetectable after the time period (40 min)

B1: thermolysin (TLN) (Bacillus thermoproteolyticus) (protein)
chain: ITGTSTVGVGRGVLGDQKNINTTYSTYYYLQDNTRGNGIFTYDAKYRTTLPGSLWADADNQFFASYDAPAVDAHYYAGVTYDYYKNVHNRLSYDGNNAAIRSSVHYSQGYNNAFWNGSQMVYGDGDGQTFIPLSGGIDVVAHELTHAVTDYTAGLIYQNESGAINEAISDIFGTLVEFYANKNPDWEIGEDVYTPGISGDSLRSMSDPAKYGDPDHYSKRYTGTQDNGGVHINSGIINKAAYLISQGGTHYGVSVVGIGRDKLGKIFYRALTQYLTPTSNFSQLRAAAVQSATDLYGSTSQEVASVKQAFDAVGVK
notes: purchased Serva, Germany
Km [3]: 33 ± 8 µM | kcat [3]: 7 ± 1 s⁻¹ | kcat/Km [3]: 210000 ± 60000 M⁻¹ s⁻¹

Source: article PMC6778150 (Scientific Reports, 2019)
